Data published in paper PMC8775250, “Cryo-EM Structure of the Rhodobacter sphaeroides Light-Harvesting 2 Complex at 2.1 Å” (Biochemistry, 2021).
Ends that are not written are not given here.

B1: LH2 α-polypeptide of the Rhodobacter sphaeroides light-harvesting 2 (LH2) complex (natural protein, Rhodobacter sphaeroides 2.4.1, UniProt Q3J144 1-54, looked up)
chain: carboxyl-MTNGKIWLVVKPTVGVPLFLSAAVIASVVIHAAVLTTTTWLPAYYQGSAAVAAE
notes: Met1 is the N-terminus in the structure; nine copies form the inner ring; also called α-apoprotein

Experiments:
[1] = biological target: B1; experiment: cryo-EM structure; single-particle cryo-EM of the LH2 complex purified from membranes in 20 mM HEPES pH 7.8 with 0.1% LDAO; C9 symmetry imposed; 2.1 Å; conditions: both partners purified
[2] = biological target: the molecule itself; experiment: as above

Row | Binder | binding result [1] | stoichiometry N [2]
1 | LH2 β-polypeptide of the Rhodobacter sphaeroides light-harvesting 2 (LH2) complex (natural protein, Gly51 is the C-terminus; N-terminal, transmembrane and C-terminal regions of 14, 32 and 5 residues; nine copies form the outer ring) not shown | binds | 9
2 | B1 | – | 9
